# Values of other authors in paper PMC9179313.
# Where “and” joins values, the source holds several entries; their conditions need not be identical. Identical values can stand only once.
# Molecular target: ICAM1 (Homo sapiens) (UniProt P05362)
# Sequence (P05362 28-480): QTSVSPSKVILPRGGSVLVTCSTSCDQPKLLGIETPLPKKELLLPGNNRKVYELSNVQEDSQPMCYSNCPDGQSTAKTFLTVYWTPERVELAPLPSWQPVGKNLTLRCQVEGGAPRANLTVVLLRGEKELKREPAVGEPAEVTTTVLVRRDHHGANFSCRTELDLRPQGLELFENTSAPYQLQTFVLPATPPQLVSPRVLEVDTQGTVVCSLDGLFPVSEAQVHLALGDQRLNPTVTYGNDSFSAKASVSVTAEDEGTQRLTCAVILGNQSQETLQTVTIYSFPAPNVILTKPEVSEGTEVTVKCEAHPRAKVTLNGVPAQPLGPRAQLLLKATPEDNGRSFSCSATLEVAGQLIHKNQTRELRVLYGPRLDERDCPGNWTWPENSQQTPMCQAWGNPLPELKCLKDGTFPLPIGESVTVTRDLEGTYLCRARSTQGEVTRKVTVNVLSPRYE
# Sequence of LFA1 (integrin alpha-L beta-2) (P20701 26-1090): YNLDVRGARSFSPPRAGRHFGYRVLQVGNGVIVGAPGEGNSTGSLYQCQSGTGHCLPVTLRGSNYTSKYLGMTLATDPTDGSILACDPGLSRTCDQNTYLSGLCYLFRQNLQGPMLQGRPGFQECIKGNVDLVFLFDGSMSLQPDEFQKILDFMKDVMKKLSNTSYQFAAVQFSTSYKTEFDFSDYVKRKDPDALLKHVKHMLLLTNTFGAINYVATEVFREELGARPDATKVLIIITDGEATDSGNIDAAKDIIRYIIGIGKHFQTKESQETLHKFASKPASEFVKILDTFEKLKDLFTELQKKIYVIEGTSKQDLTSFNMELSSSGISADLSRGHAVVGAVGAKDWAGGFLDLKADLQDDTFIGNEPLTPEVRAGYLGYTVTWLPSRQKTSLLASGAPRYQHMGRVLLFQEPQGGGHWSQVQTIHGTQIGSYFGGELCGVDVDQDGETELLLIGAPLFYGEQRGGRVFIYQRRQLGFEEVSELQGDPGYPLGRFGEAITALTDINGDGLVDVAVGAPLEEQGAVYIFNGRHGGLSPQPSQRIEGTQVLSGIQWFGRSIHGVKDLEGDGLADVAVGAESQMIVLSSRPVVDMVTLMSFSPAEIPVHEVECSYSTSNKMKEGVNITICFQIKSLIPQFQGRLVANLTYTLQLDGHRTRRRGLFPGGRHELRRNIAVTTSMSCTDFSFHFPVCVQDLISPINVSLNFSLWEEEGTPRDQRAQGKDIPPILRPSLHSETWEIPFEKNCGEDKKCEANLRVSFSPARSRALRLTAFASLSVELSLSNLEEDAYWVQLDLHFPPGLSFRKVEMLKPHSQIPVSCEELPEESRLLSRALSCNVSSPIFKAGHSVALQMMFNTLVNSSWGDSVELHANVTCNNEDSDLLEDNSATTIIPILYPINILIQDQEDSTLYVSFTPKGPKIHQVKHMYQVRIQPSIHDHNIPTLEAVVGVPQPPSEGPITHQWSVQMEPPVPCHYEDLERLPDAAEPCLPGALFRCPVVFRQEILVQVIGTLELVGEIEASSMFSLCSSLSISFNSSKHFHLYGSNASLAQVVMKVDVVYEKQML
# Sequence of LFA1 (integrin alpha-L beta-2) (P05107 23-700, further chain): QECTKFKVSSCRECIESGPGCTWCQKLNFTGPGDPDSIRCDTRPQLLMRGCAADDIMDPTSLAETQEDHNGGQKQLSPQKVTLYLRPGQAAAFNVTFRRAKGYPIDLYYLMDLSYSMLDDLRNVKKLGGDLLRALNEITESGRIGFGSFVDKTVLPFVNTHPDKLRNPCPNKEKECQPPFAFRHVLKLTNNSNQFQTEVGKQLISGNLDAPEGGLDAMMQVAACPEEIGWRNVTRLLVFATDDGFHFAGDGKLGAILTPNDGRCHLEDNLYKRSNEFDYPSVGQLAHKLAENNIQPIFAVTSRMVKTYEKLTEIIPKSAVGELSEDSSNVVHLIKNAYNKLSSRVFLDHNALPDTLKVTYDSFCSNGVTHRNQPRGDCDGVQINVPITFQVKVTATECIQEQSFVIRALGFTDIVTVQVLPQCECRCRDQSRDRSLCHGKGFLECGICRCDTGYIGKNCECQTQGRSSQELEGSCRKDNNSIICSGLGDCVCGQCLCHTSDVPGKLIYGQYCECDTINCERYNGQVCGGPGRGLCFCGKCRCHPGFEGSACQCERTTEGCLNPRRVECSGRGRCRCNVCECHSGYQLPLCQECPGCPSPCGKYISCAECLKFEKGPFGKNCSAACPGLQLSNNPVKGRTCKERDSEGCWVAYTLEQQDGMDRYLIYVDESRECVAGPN
substance,measurement,value
LFA1 (integrin alpha-L beta-2) (from UniProt P20701),Kd,26 µM and 36 µM
